The source of these data is patent US20240294610A1, “PEPTIDE FOR TREATING AGE-RELATED MACULAR DEGENERATION” (DAIICHI SANKYO COMPANY, LIMITED, priority 2016, published 2024).

The test system of assay [1] is retinal damage induced by light exposure. Description: Rat model of retinal damage induced by light exposure. It counts as in vivo. How it is done: Rat models of retinal damage induced by light exposure are models that induce the cell death of retinal photoreceptor cells by light exposure and are universally used as model animals of retinal degeneration (Daniel T. Organisciak et al., (1996) Invest Ophthalmol Vis Sci. Vol. 37 (No. 11): p. 2243-2257). A 0.5% (W/V) tropicamide-0.5% phenylephrine hydrochloride ophthalmic solution was ocularly instilled under adaptation to darkness to rats adapted to darkness for 72 hours. Then, the rats were exposed to white light of 5500 Lux for 3 hours. The rats thus exposed were adapted again to darkness for about 24 hours and then raised for 2 days under light-dark conditions of ordinary raising. After euthanasia, the eyeballs were excised and fixed by dipping in a 3.7% (W/V) formaldehyde-0.5 to 1% (W/V) methanol-0.2% (W/V) picric acid fixative for 24 hours or longer. After paraffin embedding, thin sliced sections were prepared. The sections were stained with hematoxylin-eosin, and a nucleus count in an outer nuclear layer at the cross-section of the retina was determined to evaluate retinal damage. […] Immediately before light exposure of rats, 5 micro L of HTRA1-inhibiting peptide […] having a concentration of 0.04 mg/mL or 0.2 mg/mL was intravitreally administered under anesthesia. n=4 for a normal saline administration group, and n=5 for the other groups. […] The retinal protective effects of three HTRA1-inhibiting peptides prepared in Example 6 were evaluated using the rat models of retinal damage induced by light exposure, constructed in Example (5-1). The operation followed Example 5. n=6 for all groups.

Assay [2] relates to ARPE-19 cells. As to the kind of experiment: VEGF mRNA induction test using human retinal pigment epithelial cell ARPE-19. It is filed as cell-based. As to conditions: H2O2 500 μM, normal human serum complement 25%, HTRA1 1 μM, peptide 1 μM, 4 hours. How it is done: ARPE-19 cells were cultured until confluent in 12 mm Transwell with 0.4 μm Pore Polyester Membrane Insert, Sterile (Corning Inc.) under conditions of 37° C. and 5% CO2 using a DMEM/F-12 medium (Wako Pure Chemical Industries, Ltd.) containing 10% fetal bovine serum (FBS) and penicillin-streptomycin (Thermo Fisher Scientific Inc.). Then, the cells were cultured in FBS-free DMEM/F-12 for 5 days. H2O2 (final concentration: 500 μM) was added to the upper and lower layers of the chamber, and normal human serum complement (Quidel Corp.) (final concentration: 25%) was added to the upper layer of the chamber. […] Four hours later, the culture supernatant was removed, and the cells were washed with PBS. Then, mRNA was extracted using SuperPrep™ Cell Lysis & RT Kit for qPCR (Toyobo Co., Ltd.) and subjected to reverse transcription reaction. The mRNA level of VEGF was quantitatively analyzed by TaqMan Gene Expression Assays (Hs000900055_m1 and Hs02786624_g1; Thermo Fisher Scientific Inc.) using 7900HT Fast Real-Time PCR System (Applied Biosystems, Inc.). GAPDH was used in the correction of the mRNA level.

The test system of assay [3] is human umbilical vein endothelial cells (HUVEC). Description: HUVEC migration test. It is filed as cell-based. The note with it: 300 nM peptide in EGM growth medium; 2 hours. How it is done: HUVEC (Kurabo Industries Ltd.) was cultured for 18 hours under conditions of 37° C. and 5% CO2 in a medium (0.1% BSA-containing serum-free EGM) in which EBM™-2 basal medium (Lonza Walkersville, Inc.) containing 0.1% BSA was supplemented with EGM™-2 SingleQuots™ additive factor set except for serum and VEGF. Then, the cells were adjusted to 4×10^5 cells/mL with 0.1% BSA-containing serum-free EGM. 4×10^5 cells/mL of the HUVEC suspension was added at 50 μL/well to the upper layer of a chamber of Corning FluoroBlok HTS 96 Well Multiwell Permeable Support System with 3.0 μm High Density PET Membrane (Corning Inc.) having a gelatin-coated membrane. Then, each sample described below (medium 1, 2 or 3) was added at 210 μL/well to the lower layer of the chamber (n=3). […]
FluoroBlok HTS 96 Well Multiwell Support System supplemented with the cells and the sample was incubated for 2 hours under conditions of 37° C. and 5% CO2. […] The fluorescence intensity (excitation wavelength/fluorescence wavelength: 485 nm/535 nm) of each well was measured using a plate reader (ARVO-MX, PerkinElmer, Inc.), and the migrated cells were counted for each well according to the following expression.
Migrated cells=Mean fluorescence intensity of wells containing HUVEC (n=3)−Mean fluorescence intensity of blank wells (n=3).

Assay [4] has as its system RPE cells. As to the kind of experiment: Rabbit retinal damage model by loading with high-fat diet containing hydroquinone (HFD-HQ). It is filed as in vivo. The note with it: HFD-HQ-loaded 3-year-old rabbits; 50 μL of 40 mg/mL intravitreally after 2 months of feeding; evaluated after 4 months. The source says:
Retinal damage models prepared using high-fat diet (HFD) and hydroquinone (HQ) are models in which oxidative stress is induced by a pro-oxidant to cause retinal damage. These models have been reported only for mice (Diego G. Espinosa-Heidmann et al., (2006) Invest Ophthalmol Vis Sci., Vol. 47 (No. 2): p. 729-737). Accordingly, 3-year-old JW rabbits were fed for 4 months with RC4 (Oriental Yeast Co., Ltd.) diet containing 1.5% (W/V) coconut oil-0.25% (W/V) cholesterol-1.5% (W/V) peanut oil-2.4% (W/V) hydroquinone (HFD-HQ) to construct rabbit retinal damage models. After euthanasia, the eyeballs were excised, and the anterior segment of the eye was removed by an external incision of about 5 mm from the corneal limbus. The vitreous body was further separated. Then, retina-choroid-sclera was fixed by dipping in 4% (W/V) paraformaldehyde fixative for 24 hours or longer. […] The stained choroid was observed under a fluorescence microscope (BZ-9000; Keyence Corp.). The area of stained retinal pigment epithelial (RPE) cells was determined to evaluate RPE cell damage.
The retinal protective effect of the HTRA1-inhibiting peptide H308 prepared in Example 1 was evaluated using the rabbit models. […]
After 4 months from the start of feeding, RPE cell hypertrophy in the model animals was evaluated. […]

The target in assay [5] is T1, HTRA1 (cat) (Homo sapiens, UniProt Q92743).
T1 construct: The protease domain (158Gly to 373Lys), except for the N-terminal domain and the PDZ domain, of human HTRA1 (Q92743); made in house; host or cells: E. coli BL21 (DE3)
T1 sequence (Q92743 158-373): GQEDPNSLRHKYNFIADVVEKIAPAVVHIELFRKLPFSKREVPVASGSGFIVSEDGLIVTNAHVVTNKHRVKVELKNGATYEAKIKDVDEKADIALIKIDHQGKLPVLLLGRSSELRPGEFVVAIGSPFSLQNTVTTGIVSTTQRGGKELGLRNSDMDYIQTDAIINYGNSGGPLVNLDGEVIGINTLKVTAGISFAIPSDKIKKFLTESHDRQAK
As to the kind of experiment: HTRA1 (cat) inhibitory activity using peptide substrate H2-Opt (Example 3-1). It counts as biochemical. The note with it: method of (3-1); peptide 1.875 to 1,000 nM. As to the method: The protease domain (158Gly to 373Lys), except for the N-terminal domain and the PDZ domain, of human HTRA1 (Q92743) was used as HTRA1 (cat) to construct a HTRA1 (cat) expression vector. The desired DNA fragment was amplified by PCR ((94° C. for 15 sec, 60° C. for 30 sec, and 68° C. for 45 sec)×30 cycles) with a human HTRA1-inserted plasmid (GeneCopoeia, Inc.; GC-M0558) as a template using the following primers and KOD-plus-(Toyobo Co., Ltd.).
A substrate peptide H2-Opt (Mca-IRRVSYSFK(Dnp)K) (Peptide Institute, Inc.: SEQ ID NO: 54, FIG. 8) was dissolved at 10 mM in DMSO, diluted with an assay buffer (50 mM borate and 150 mM NaCl, pH 8.5), and used at a final concentration of 10 μM. HTRA1 (HTRA1 (cat) or HTRA1 (full)) and each HTRA1-inhibiting peptide diluted with an assay buffer were mixed at 25 μL each and reacted at 37° C. for 20 minutes. Then, 50 μL of the substrate diluted with an assay buffer was added thereto. A fluorescent signal (excitation at 328 nm/emission at 393 nm) was measured using Enspire (PerkinElmer, Inc.). […]
The substrate peptide decomposition rate of the HTRA1-inhibiting peptide at each concentration was calculated. When the decomposition rate at an inhibitor concentration of 0 nM was defined as 100%, the HTRA1 (cat) and HTRA1 (full) inhibitory activity of each HTRA1-inhibiting peptide was evaluated (FIGS. 2 and 3).

B1: H308_D1G_S16A: H308 derivative, 1Asp substituted by Gly and 16Ser by Ala, SEQ ID NO: 24 (FIG. 36) (protein)
chain: GPQFGLFSKYRTPNCADHAGMACVALYEPVCGSDMSTYENECVLCMKIREGGHNIKIIRNGPCGG
modifications: peptide H308_D1G_S16A
With B1, the “nucleus count in an outer nuclear layer at the cross-section of the retina” value (from here on “nucleus count in an outer nuclear layer”) in assay [1] (0.2 and 1 μg/eye, n=6) is on record as “suppressed decrease in nucleus count in an outer nuclear layer”. Besides, the “expression of VEGF mRNA” value in assay [2] was “confirmed to suppress the expression of VEGF”. In addition, the “migration of HUVEC induced in the serum-containing medium” value in assay [3] is “suppressive effect on the migration of HUVEC”.

B2: H308: SPINK2 mutant HTRA1-inhibiting peptide, amino acid sequence SEQ ID NO: 9 (FIG. 21) (protein)
chain: DPQFGLFSKYRTPNCSDHAGMACVALYEPVCGSDMSTYENECVLCMKIREGGHNIKIIRNGPCGG
modifications: peptide H308
In the case of B2, the “nucleus count in an outer nuclear layer” value in assay [1] (5 micro L of 0.04 mg/mL or 0.2 mg/mL intravitreally immediately before light exposure) is recorded as “effect of suppressing decrease in nucleus count in an outer nuclear layer was confirmed”. Besides, in assay [4], the “hypertrophy of RPE cells, average area” value was “exhibited a suppressive effect on the hypertrophy of RPE cells” and the “hypertrophy of RPE cells, number of RPE cells having a cell area of 1500 μm^2 or larger” value is given as “exhibited a suppressive effect on the hypertrophy of RPE cells”.

B3: H321AT_D1G_S16A: peptide derivative, amino acid sequence SEQ ID NO: 28 (FIG. 40) (protein)
chain: GPQFGLFSKYRTPNCADFDGMACYAFYEPVCGSDMSTYANECTLCMKIREGGHNIKIIRNGPCGG
modifications: peptide H321AT_D1G_S16A
Consider B3, for which the “nucleus count in an outer nuclear layer” value in assay [1] (0.2 and 1 μg/eye, n=6) is reported as “suppressed decrease in nucleus count in an outer nuclear layer”.

B4: H322AT_D1G_S16A: peptide derivative, amino acid sequence SEQ ID NO: 29 (FIG. 41) (protein)
chain: GPQFGLFSKYRTPNCAQHEGMACYALYEPVCGSDMSTYANECTLCMKIREGGHNIKIIRNGPCGG
modifications: peptide H322AT_D1G_S16A
Consider B4, for which the “nucleus count in an outer nuclear layer” value in assay [1] (0.2 and 1 μg/eye, n=6) is listed as “suppressed decrease in nucleus count in an outer nuclear layer”.

B5: wild-type SPINK2: human serine protease inhibitor Kazal-type 2, control, amino acid sequence SEQ ID NO: 1 (FIG. 13) (protein, listed as Homo sapiens)
chain: DPQFGLFSKYRTPNCSQYRLPGCPRHFNPVCGSDMSTYANECTLCMKIREGGHNIKIIRNGPC
For the molecule B5, the “HTRA1 (cat) inhibitory activity (decomposition rate of peptide substrate)” value in assay [5] is on record as “no HTRA1 inhibitory activity”.
